# Assay results published in patent publication US20090118184A1 (UNIVERSITY OF ROCHESTER, published 2009).
# Assays:
# [1] = biological target: T1, factor VIIIa A1/A3C1C2 dimer, wild type (human, UniProt P00451 20-391; P00451 1709-2351); experiment: cell-based or functional assay
# T1 sequence 1: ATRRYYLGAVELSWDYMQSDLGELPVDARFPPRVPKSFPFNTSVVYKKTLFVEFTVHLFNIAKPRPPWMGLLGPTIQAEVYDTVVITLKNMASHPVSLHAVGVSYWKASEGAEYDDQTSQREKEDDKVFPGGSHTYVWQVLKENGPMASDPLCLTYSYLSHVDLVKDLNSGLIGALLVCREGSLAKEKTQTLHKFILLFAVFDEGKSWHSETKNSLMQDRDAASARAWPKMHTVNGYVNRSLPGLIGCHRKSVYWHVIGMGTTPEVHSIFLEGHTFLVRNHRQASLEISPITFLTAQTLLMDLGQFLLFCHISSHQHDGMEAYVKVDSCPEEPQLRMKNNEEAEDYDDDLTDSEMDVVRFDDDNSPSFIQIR
# T1 sequence 2: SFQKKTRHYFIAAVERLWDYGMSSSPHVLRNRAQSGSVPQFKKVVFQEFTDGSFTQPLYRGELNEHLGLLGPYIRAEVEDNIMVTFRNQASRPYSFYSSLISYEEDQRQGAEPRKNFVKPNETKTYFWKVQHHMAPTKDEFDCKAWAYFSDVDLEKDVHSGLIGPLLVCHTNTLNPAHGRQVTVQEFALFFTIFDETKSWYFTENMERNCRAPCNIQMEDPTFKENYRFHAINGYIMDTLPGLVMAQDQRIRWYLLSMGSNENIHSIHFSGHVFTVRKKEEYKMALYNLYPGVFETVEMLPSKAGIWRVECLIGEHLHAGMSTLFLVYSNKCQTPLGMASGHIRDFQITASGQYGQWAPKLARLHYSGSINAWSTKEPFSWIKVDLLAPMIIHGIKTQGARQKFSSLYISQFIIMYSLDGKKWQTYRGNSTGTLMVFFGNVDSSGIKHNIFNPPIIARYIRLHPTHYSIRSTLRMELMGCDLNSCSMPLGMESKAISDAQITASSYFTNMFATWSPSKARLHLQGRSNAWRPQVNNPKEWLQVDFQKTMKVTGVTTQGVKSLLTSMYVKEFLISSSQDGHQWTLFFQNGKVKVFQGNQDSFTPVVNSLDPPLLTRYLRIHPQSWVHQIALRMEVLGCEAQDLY
# [2] = biological target: T1, factor VIIIa A1/A3C1C2 dimer, wild type; experiment: cell-based or functional assay; remark: listed apart in the source
Binder,"Decay rate relative to wild type, Factor VIIIa (1.5 nM, factor IXa absent) [1]","Decay rate, Factor VIIIa (1.5 nM factor VIIIa, factor IXa absent) [1]","Factor VIIIa decay rate relative to wild type, FIXa (+) [2]","Factor VIIIa decay rate, FIXa (+) [2]"
"factor VIIIa A2 subunit, D519A and E665A (other) SVAKKHPKTWVHYIAAEEEDWDYAPLVLAPDDRSYKSQYLNNGPQRIGRKYKKVRFMAYTDETFKTREAIQHESGILGPLLYGEVGDTLLIIFKNQASRPYNIYPHGITDVRPLYSRRLPKGVKHLKDFPILPGEIFKYKWTVTVEAGPTKSDPRCLTRYYSSFVNMERDLASGLIGPLLICYKESVDQRGNQIMSDKRNVILFSVFDENRSWYLTENIQRFLPNPAGVQLEDPEFQASNIMHSINGYVFDSLQLSVCLHEVAYWYILSIGAQTDFLSVFFSGYTFKHKMVYADTLTLFPFSGETVFMSMENPGLWILGCHNSDFRNRGMTALLKVSSCDKNTGDYYEDSYEDISAYLLSKNNAIEPR",0.25 relative to wild type,0.0352 min⁻¹,,
"factor VIIIa A2 subunit, T522A (other) SVAKKHPKTWVHYIAAEEEDWDYAPLVLAPDDRSYKSQYLNNGPQRIGRKYKKVRFMAYTDETFKTREAIQHESGILGPLLYGEVGDTLLIIFKNQASRPYNIYPHGITDVRPLYSRRLPKGVKHLKDFPILPGEIFKYKWTVTVEDGPAKSDPRCLTRYYSSFVNMERDLASGLIGPLLICYKESVDQRGNQIMSDKRNVILFSVFDENRSWYLTENIQRFLPNPAGVQLEDPEFQASNIMHSINGYVFDSLQLSVCLHEVAYWYILSIGAQTDFLSVFFSGYTFKHKMVYEDTLTLFPFSGETVFMSMENPGLWILGCHNSDFRNRGMTALLKVSSCDKNTGDYYEDSYEDISAYLLSKNNAIEPR",,,2.39 relative to wild type,0.027 min⁻¹
"factor VIIIa A2 subunit, S695A (other) SVAKKHPKTWVHYIAAEEEDWDYAPLVLAPDDRSYKSQYLNNGPQRIGRKYKKVRFMAYTDETFKTREAIQHESGILGPLLYGEVGDTLLIIFKNQASRPYNIYPHGITDVRPLYSRRLPKGVKHLKDFPILPGEIFKYKWTVTVEDGPTKSDPRCLTRYYSSFVNMERDLASGLIGPLLICYKESVDQRGNQIMSDKRNVILFSVFDENRSWYLTENIQRFLPNPAGVQLEDPEFQASNIMHSINGYVFDSLQLSVCLHEVAYWYILSIGAQTDFLSVFFSGYTFKHKMVYEDTLTLFPFSGETVFMSMENPGLWILGCHNADFRNRGMTALLKVSSCDKNTGDYYEDSYEDISAYLLSKNNAIEPR",,,0.75 relative to wild type,0.0085 min⁻¹
"factor VIIIa A2 subunit, Y476F (other) SVAKKHPKTWVHYIAAEEEDWDYAPLVLAPDDRSYKSQYLNNGPQRIGRKYKKVRFMAYTDETFKTREAIQHESGILGPLLYGEVGDTLLIIFKNQASRPYNIFPHGITDVRPLYSRRLPKGVKHLKDFPILPGEIFKYKWTVTVEDGPTKSDPRCLTRYYSSFVNMERDLASGLIGPLLICYKESVDQRGNQIMSDKRNVILFSVFDENRSWYLTENIQRFLPNPAGVQLEDPEFQASNIMHSINGYVFDSLQLSVCLHEVAYWYILSIGAQTDFLSVFFSGYTFKHKMVYEDTLTLFPFSGETVFMSMENPGLWILGCHNSDFRNRGMTALLKVSSCDKNTGDYYEDSYEDISAYLLSKNNAIEPR",,,1.23 relative to wild type,0.0139 min⁻¹
